According to patent publication US20220235123A1 (UNIVERSITY OF TORONTO, published 2022):

Assays:
[1] = biological target: T1, recombinant human vascular endothelial growth factor (hVEGF) 121 (human, UniProt P15692 27-147); assay: Fab-ELISA: Fab titrated on wells coated with 2 ug/mL hVEGF-121, detected with anti-kappa-light-chain-HRP
T1 construct: mature; also called human VEGF-A121; hVEGF 121 isoform
T1 sequence (looked up): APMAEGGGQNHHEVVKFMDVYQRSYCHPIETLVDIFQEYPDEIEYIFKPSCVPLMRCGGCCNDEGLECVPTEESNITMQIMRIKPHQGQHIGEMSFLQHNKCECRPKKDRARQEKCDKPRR
Source text: (§1) FIG. 4a-b. […] The bound Fabs were detected with anti-Kappa-light-chain-HRP-conjugated antibody (B).

[2] = biological target: T1, recombinant human vascular endothelial …; assay: Fab-ELISA: Fab titrated on wells coated with 2 ug/mL hVEGF-121, detected with anti-kappa-light-chain-HRP; Kd estimated from EC50
Source text: as §1

[3] = biological target: T2, recombinant human VEGF 165 isoform (human, UniProt P15692 27-191); assay: competitive ELISA in solution, 10 pM hVEGF-165, free VEGF read with Quantikine kit
T2 construct: mature
Source text: Kd calculated from the data fitted with a 5 parameter asymmetric model with Prism software.

[4] = biological target: T1, recombinant human vascular endothelial …; assay: SPR, off rate of hVEGF-121 binding

T2 sequence (P15692 other isoform, or with tags, fused parts or gaps): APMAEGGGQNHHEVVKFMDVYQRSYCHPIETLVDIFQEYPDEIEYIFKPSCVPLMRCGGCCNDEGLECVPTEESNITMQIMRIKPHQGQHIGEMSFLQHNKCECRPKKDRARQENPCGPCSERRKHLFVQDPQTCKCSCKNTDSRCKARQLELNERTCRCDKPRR

B1: FF0124-7 (Fab, V domains shown)
VH: EVQLVESGGGLVQPGGSLRLSCAASGFDLYYSYMHWVRQAPGKGLEWVASISSYSGYTSYADSVKGRFTISADTSKNTAYLQMNSLRAEDTAVYYCARGFYYGGWYGIDYWGQGTLVTVSS
VL: DIQMTQSPSSLSASVGDRVTITCRASQSVSSAVAWYQQKPGKAPKLLIYSASSLYSGVPSRFSGSRSGTDFTLTISSLQPEDFATYYCQQHYGPITFGQGTKVEIK
notes: also called FF0124-7 F2116
Q: What does the source list for B1?
A: EC50 (read off the curve) [1]: ~30 nM; Kd [2]: 33 nM

B2: FF0124-2 (Fab, V domains shown)
VH: EVQLVESGGGLVQPGGSLRLSCAASGFDLYYSSMHWVRQAPGKGLEWVASISPSSSYTYYADSVKGRFTISADTSKNTAYLQMNSLRAEDTAVYYCARYYWWHSPFWAYSGLDYWGQGTLVTVSS
VL: DIQMTQSPSSLSASVGDRVTITCRASQSVSSAVAWYQQKPGKAPKLLIYSASSLYSGVPSRFSGSRSGTDFTLTISSLQPEDFATYYCQQSGPLFTFGQGTKVEIK
notes: seventh Fab of the naive library selection; also called FF0124-2 F2083; FF0124 Fab # 2
Q: B2 was tested. Which “EC50 (read off the curve)” value [1] did it give?
A: ~50 nM

Q: What about the Kd [2] of the same binder?
A: 47 nM

B3: FF0124-4 (Fab, V domains shown)
VH: EVQLVESGGGLVQPGGSLRLSCAASGFDLYSYSIHWVRQAPGKGLEWVASIYSYSGYTYYADSVKGRFTISADTSKNTAYLQMNSLRAEDTAVYYCARGGWYALDYWGQGTLVTVSS
VL: DIQMTQSPSSLSASVGDRVTITCRASQSVSSAVAWYQQKPGKAPKLLIYSASSLYSGVPSRFSGSRSGTDFTLTISSLQPEDFATYYCQQGYGPFYSLITFGQGTKVEIK
notes: also called FF0124-4 F2088
Q: Which “EC50 (read off the curve)” value [1] does the source give for B3 here?
A: ~10 nM

Q: What about the Kd [2] of the same binder?
A: 11 nM

B4: FF0124-5 (Fab, V domains shown)
VH: EVQLVESGGGLVQPGGSLRLSCAASGFDISSYYMHWVRQAPGKGLEWVASIYSYSGYTYYADSVKGRFTISADTSKNTAYLQMNSLRAEDTAVYYCARHSVYYWYGSYWYYPSSAMDYWGQGTLVTVSS
VL: DIQMTQSPSSLSASVGDRVTITCRASQSVSSAVAWYQQKPGKAPKLLIYSASSLYSGVPSRFSGSRSGTDFTLTISSLQPEDFATYYCQQFWAGYGLITFGQGTKVEIK
notes: also called FF0124-5 F2091
Q: Which “EC50 (read off the curve)” value [1] does the source give for B4 here?
A: ~20 nM

Q: And the Kd [2]?
A: 19 nM

B5: FF0124-6 (Fab, V domains shown)
VH: EVQLVESGGGLVQPGGSLRLSCAASGFDIYYYSMHWVRQAPGKGLEWVASISSYSGYTSYADSVKGRFTISADTSKNTAYLQMNSLRAEDTAVYYCARYPYYYWAFDYWGQGTLVTVSS
VL: DIQMTQSPSSLSASVGDRVTITCRASQSVSSAVAWYQQKPGKAPKLLIYSASSLYSGVPSRFSGSRSGTDFTLTISSLQPEDFATYYCQQSGHYHYPFTFGQGTKVEIK
notes: also called FF0124-6 F2094
Q: B5 was tested. Which “EC50 (read off the curve)” value [1] did it give?
A: ~20 nM

Q: And the Kd [2]?
A: 25 nM

B6: Variant 205 (Fab variant of Clone #201) (Fab, V domains shown)
VH: EVQLVESGGGLVQPGGSLRLSCAASGFDLFHYSIHWVRQAPGKGLEWVAYIYPSYGYTYYADSVKGRFTISADTSKNTAYLQMNSLRAEDTAVYYCARHAWYYGWGLDYWGQGTLVTVSS
VL: DIQMTQSPSSLSASVGDRVTITCRASQAAYGRVAWYQQKPGKAPKLLIYKDSELYAGVPSRFSGSRSGTDFTLTISSLQPEDFATYYCQQRGWYLFTFGQGTKVEIKR
Q: With B6 as the binder, how does the Kd [3] read?
A: 0.062 nM

B7: Variant 209 (Fab variant of Clone #201) (Fab, V domains shown)
VH: EVQLVESGGGLVQPGGSLRLSCAASGFDLFHYSIHWVRQAPGKGLEWVAYIYPSYGYTYYADSVKGRFTISADTSKNTAYLQMNSLRAEDTAVYYCARHAWYYGWGLDYWGQGTLVTVSS
VL: DIQMTQSPSSLSASVGDRVTITCRASQDAAYGRVAWYQQKPGKAPKLLIYKASELYAGVPSRFSGSRSGTDFTLTISSLQPEDFATYYCQQRGWYLFTFGQGTKVEIKR
Q: With B7 as the binder, how does the Kd [3] read?
A: 0.028 nM

B8: FF03033-5 (Fab, V domains shown)
VH: EVQLVESGGGLVQPGGSLRLSCAASGFDLFHYSIHWVRQAPGKGLEWVAYIYPSYGYTYYADSVKGRFTISADTSKNTAYLQMNSLRAEDTAVYYCARHAWYYGWGLDYWGQGTLVTVSS
VL: DIQMTQSPSSLSASVGDRVTITCRASQGVGERVAWYQQKPGKAPKLLIYNASHLAGVPSRFSGSRSGTDFTLTISSLQPEDFATYYCQQRGWYLFTFGQGTKVEIK
notes: fifth generation Fab from the library based on FF0117-A5
Q: B8 was tested. Which koff [4] did it give?
A: 0.000168 s⁻¹

B9: FF03033-4 (Fab, V domains shown)
VH: EVQLVESGGGLVQPGGSLRLSCAASGFDLFHYSIHWVRQAPGKGLEWVAYIYPSYGYTYYADSVKGRFTISADTSKNTAYLQMNSLRAEDTAVYYCARHAWYYGWGLDYWGQGTLVTVSS
VL: DIQMTQSPSSLSASVGDRVTITCRASQEGWDRVAWYQQKPGKAPKLLIYSASQLAGVPSRFSGSRSGTDFTLTISSLQPEDFATYYCQQRGWYLFTFGQGTKVEIK
notes: fifth generation Fab with one residue deleted near the end of CDR-L2; the text says FF03046-1 was made from it by putting the tyrosine back
Q: With B9 as the binder, how does the koff [4] read?
A: < 1e-06 s⁻¹

B10: FF03033-2 (Fab, V domains shown)
VH: EVQLVESGGGLVQPGGSLRLSCAASGFDLFHYSIHWVRQAPGKGLEWVAYIYPSYGYTYYADSVKGRFTISADTSKNTAYLQMNSLRAEDTAVYYCARHAWYYGWGLDYWGQGTLVTVSS
VL: DIQMTQSPSSLSASVGDRVTITCRASQVAFYNVAWYQQKPGKAPKLLIYDASILNGVPSRFSGSRSGTDFTLTISSLQPEDFATYYCQQRGWYLFTFGQGTKVEIK
notes: as for B8
Q: Which koff [4] does the source give for B10 here?
A: 0.000236 s⁻¹

B11: Variant 215 (Fab variant of Clone #201) (Fab, V domains shown)
VH: EVQLVESGGGLVQPGGSLRLSCAASGFDLFDYSIHWVRQAPGKGLEWVAYIYPSYGYTYYADSVKGRFTISADTSKNTAYLQMNSLRAEDTAVYYCARHAWYYGWGLDYWGQGTLVTVSS
VL: DIQMTQSPSSLSASVGDRVTITCRASQAAYGRVAWYQQKPGKAPKLLIYKASELYAGVPSRFSGSRSGTDFTLTISSLQPEDFATYYCQQRGWYLFTFGQGTKVEIKR
Q: B11 was tested. Which Kd [3] did it give?
A: 0.027 nM

B12: Variant 213 (Fab variant of Clone #201) (Fab, V domains shown)
VH: EVQLVESGGGLVQPGGSLRLSCAASGFDLFHYDIHWVRQAPGKGLEWVAYIYPSYGYTYYADSVKGRFTISADTSKNTAYLQMNSLRAEDTAVYYCARHAWYYGWGLDYWGQGTLVTVSS
VL: DIQMTQSPSSLSASVGDRVTITCRASQAAYGRVAWYQQKPGKAPKLLIYKASELYAGVPSRFSGSRSGTDFTLTISSLQPEDFATYYCQQRGWYLFTFGQGTKVEIKR
Q: With B12 as the binder, how does the Kd [3] read?
A: 0.091 nM

B13: Variant 206 (Fab variant of Clone #201) (Fab, V domains shown)
VH: EVQLVESGGGLVQPGGSLRLSCAASGFDLFHYSIHWVRQAPGKGLEWVAYIYPSYGYTYYADSVKGRFTISADTSKNTAYLQMNSLRAEDTAVYYCARHAWYYGWGLDYWGQGTLVTVSS
VL: DIQMTQSPSSLSASVGDRVTITCRASQAAYGRVAWYQQKPGKAPKLLIYDASELYAGVPSRFSGSRSGTDFTLTISSLQPEDFATYYCQQRGWYLFTFGQGTKVEIKR
notes: also called SI; No. 3
Q: How did the Kd [3] turn out when B13 was run?
A: 0.014 nM

B14: Variant 220 (Fab variant of Clone #201) (Fab, V domains shown)
VH: EVQLVESGGGLVQPGGSLRLSCAASGFDLFHYSIHWVRQAPGKGLEWVAYIYPSYGYTYYADSVKGRFTISADTSKNTAYLQMNSLRAEDTAVYYCARHAWYYGWGLDYWGQGTLVTVSS
VL: DIQMTQSPSSLSASVGDRVTITCRASQAAYGDVAWYQQKPGKAPKLLIYKASELYAGVPSRFSGSRSGTDFTLTISSLQPEDFATYYCQQRGWYLFTFGQGTKVEIKR
Q: With B14 as the binder, how does the Kd [3] read?
A: 0.026 nM

B15: FF03033-3 (Fab, V domains shown)
VH: EVQLVESGGGLVQPGGSLRLSCAASGFDLFHYSIHWVRQAPGKGLEWVAYIYPSYGYTYYADSVKGRFTISADTSKNTAYLQMNSLRAEDTAVYYCARHAWYYGWGLDYWGQGTLVTVSS
VL: DIQMTQSPSSLSASVGDRVTITCRASQFVGYNVAWYQQKPGKAPKLLIYQASSLAGVPSRFSGSRSGTDFTLTISSLQPEDFATYYCQQRGWYLFTFGQGTKVEIK
notes: as for B8
Q: With B15 as the binder, how does the koff [4] read?
A: 0.000146 s⁻¹

B16: FF03033-8 (Fab, V domains shown)
VH: EVQLVESGGGLVQPGGSLRLSCAASGFDLFHYSIHWVRQAPGKGLEWVAYIYPSYGYTYYADSVKGRFTISADTSKNTAYLQMNSLRAEDTAVYYCARHAWYYGWGLDYWGQGTLVTVSS
VL: DIQMTQSPSSLSASVGDRVTITCRASQAAYGRVAWYQQKPGKAPKLLIYKASELAGVPSRFSGSRSGTDFTLTISSLQPEDFATYYCQQRGWYLFTFGQGTKVEIK
notes: fifth generation Fab with one residue deleted near the end of CDR-L2; the text says FF03046-2 was made from it by putting the tyrosine back
Q: How did the koff [4] turn out when B16 was run?
A: < 1e-06 s⁻¹

B17: Variant 212 (Fab variant of Clone #201) (Fab, V domains shown)
VH: EVQLVESGGGLVQPGGSLRLSCAASGFDLFHYSIDWVRQAPGKGLEWVAYIYPSYGYTYYADSVKGRFTISADTSKNTAYLQMNSLRAEDTAVYYCARHAWYYGWGLDYWGQGTLVTVSS
VL: DIQMTQSPSSLSASVGDRVTITCRASQAAYGRVAWYQQKPGKAPKLLIYKASELYAGVPSRFSGSRSGTDFTLTISSLQPEDFATYYCQQRGWYLFTFGQGTKVEIKR
Q: With B17 as the binder, how does the Kd [3] read?
A: 1.28 nM

B18: FF03033-6 (Fab, V domains shown)
VH: EVQLVESGGGLVQPGGSLRLSCAASGFDLFHYSIHWVRQAPGKGLEWVAYIYPSYGYTYYADSVKGRFTISADTSKNTAYLQMNSLRAEDTAVYYCARHAWYYGWGLDYWGQGTLVTVSS
VL: DIQMTQSPSSLSASVGDRVTITCRASQPREDRVAWYQQKPGKAPKLLIYRASTLAGVPSRFSGSRSGTDFTLTISSLQPEDFATYYCQQRGWYLFTFGQGTKVEIK
notes: as for B8
Q: With B18 as the binder, how does the koff [4] read?
A: 0.000284 s⁻¹

B19: Variant 219 (Fab variant of Clone #201) (Fab, V domains shown)
VH: EVQLVESGGGLVQPGGSLRLSCAASGFDLFHYSIHWVRQAPGKGLEWVAYIYPSYGYTYYADSVKGRFTISADTSKNTAYLQMNSLRAEDTAVYYCARHAWYYGWGLDYWGQGTLVTVSS
VL: DIQMTQSPSSLSASVGDRVTITCRASQAAYDRVAWYQQKPGKAPKLLIYKASELYAGVPSRFSGSRSGTDFTLTISSLQPEDFATYYCQQRGWYLFTFGQGTKVEIKR
notes: also called SI; No. 9
Q: B19 was tested. Which Kd [3] did it give?
A: 0.012 nM
